Source: article PMC4211667, “Cell Fate Regulation Governed by a Repurposed Bacterial Histidine Kinase” (PLoS Biology, 2014)
Substitutions are numbered along the chain they refer to. Names and notes keep the numbering of the source. Like-named read-outs stand apart in the source and are kept apart here.

T1: DivL(523–769) (Caulobacter vibrioides, UniProt Q9RQQ9)
T1 construct: DHp-CA domains only (no PAS domains), residues 523-769, N-terminal His6, E. coli Rosetta (DE3) pLysS, homodimer in solution
T1 sequence (Q9RQQ9 523-769): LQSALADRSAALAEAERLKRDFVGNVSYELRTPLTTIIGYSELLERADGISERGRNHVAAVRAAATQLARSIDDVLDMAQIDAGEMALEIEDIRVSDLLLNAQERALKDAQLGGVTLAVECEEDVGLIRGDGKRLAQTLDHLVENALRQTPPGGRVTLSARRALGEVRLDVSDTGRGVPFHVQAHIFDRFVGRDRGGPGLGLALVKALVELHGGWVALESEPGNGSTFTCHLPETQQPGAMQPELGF

B1: DivL(152–769) Y562A (domain or fragment, Caulobacter crescentus, UniProt Q9RQQ9 152-769, looked up)
chain: RADSGLPTAARFAAFVDSVVEPCWIAGADGQAIWGNAAFVRAVGAASAQAPALAGKSFDRGADAVVVEAAGKGERREALRWINVEGRRRAFRLSAQPLDGGGVGVFCADVTEIEDVRDAFKKHVEAHDETLNHIAEAVAIFSQTRRLSYHNTAFAELWGLEPAWLADRPTHGEVLDRLRQRRRLPETIDYAGWKAAELARYEDLGPQADDLWDLPDGRTLKVVRQPHPLGGMLLIYSDITGELRLKAQYNALIQVQQATLDKLNDAVAVFGSDGRLRLHNEAFETFWNVTPHALEAAGDFEGVVELCVPRLHDLSFWRELKGRVADPDPQMRAPTSGEVRTSDSRIVLYQSRPLPDGATLIAFADVTDTRDLQSALADRSAALAEAERLKRDFVGNVSYELRTPLTTIIGASELLERADGISERGRNHVAAVRAAATQLARSIDDVLDMAQIDAGEMALEIEDIRVSDLLLNAQERALKDAQLGGVTLAVECEEDVGLIRGDGKRLAQTLDHLVENALRQTPPGGRVTLSARRALGEVRLDVSDTGRGVPFHVQAHIFDRFVGRDRGGPGLGLALVKALVELHGGWVALESEPGNGSTFTCHLPETQQPGAMQPELGF
notes: DivL pseudo-histidine kinase, Caulobacter crescentus, residues 152-769; source: E. coli Rosetta (DE3) pLysS, purified (Ni-NTA, gel filtration)
B2: DivL(152–769) T557N (domain or fragment, Caulobacter crescentus, UniProt Q9RQQ9 152-769, looked up)
chain: B1 chain with T406N, A411Y
notes: as for B1
B3: DivL(152–769) Y550H (domain or fragment, Caulobacter crescentus, UniProt Q9RQQ9 152-769, looked up)
chain: B1 chain with Y399H, A411Y
notes: DivL pseudo-histidine kinase, Caulobacter crescentus, residues 152-769; also called DivL Y550H; source: E. coli Rosetta (DE3) pLysS, purified (Ni-NTA, gel filtration)
B4: DivL(152–769) H579E (domain or fragment, Caulobacter crescentus, UniProt Q9RQQ9 152-769, looked up)
chain: B1 chain with A411Y, H428E
notes: as for B1
B5: DivL(152–769) R553A (domain or fragment, Caulobacter crescentus, UniProt Q9RQQ9 152-769, looked up)
chain: B1 chain with R402A, A411Y
notes: as for B1
B6: DivL(152–769) (domain or fragment)
chain: B1 chain with A411Y
B7: PleC histidine kinase/phosphatase, P37894 1-842 (enzyme)
chain: VAHREFIDSERRFRLAVEAARCGIWEWDLNGDQVYLSDVTGAMFGWGGGGVVSGQDLLERISIDHRERVRQALANAAMYGAFDVSFRVPASEQGARSLWIDARGQGFGKPGSEGHARIIGVALDVTEERIAQARAQAAENRLRDAIESVSEAFVLWDRQGRLLMCNRNYRSVFSLEPKILKPGAARAEVNRFAALAIKQDHPAPDGAKGVREAEMMDGRWIQISERRTAEGGLVMTAADITAIKTQEEARRRNEEQLQNAVAGLERSQEQLAELARKYETEKVKAESANKAKSEFLANMSHELRTPLNAINGFSEIMMNEMFGPLGDQRYKGYSQDIHSSGQHLLALINDILDMSKIEAGKMNLKFESMHLEDVAEDAVRLVRNRAEAAGLKLDIDFPQLPEIEADYRAVKQVLLNLLSNAIKFTPRAGSVTVRAEVRRDPFGDLIKVSVTDTGIGIAKEDLARLAKPFEQVESQFSKTTQGTGLGLALTKSLITMHDGVLEMHSTPGEGTTVSFTLPVRHSDQKITRDFVAA
modifications: not checked
B8: DivJ histidine kinase, Q03228 1-597 (enzyme)
chain: RDDRYASEIIGLETLLDGLPHLAIAVRGQGQVTAVRGAAPPGVTRADLVNRGLTGAAAPGDRQRLTAAIAQAHREGSASLTFNPALGVERVVALDMHRVAPNQLVGVLRDITVERHREHALDQARIDAEALAAGRARFLANMSHELRTPLNAIMGFSDIMRARMFGPLSDRYAEYAELIHESGGHLLDLINDVLDMSKIEAERFELQRGVFDAREAVQAAMRLLRVQSDTAGVQLRGVLPPGELEVDADRRALKQIVLNLVSNALKFTPRGGQVTVTAHGYDGVLEIVVADTGVGISPEDLERLGRPYEQAGGAEQRARGTGLGLSLVRAFAQLHGGEMVIESRLGAGTTVSVRLPVLLAPMVAATPTPPAAPEAPSAPEPAPTVEEPPPASLGDNVIAFAPR
modifications: not checked
B9: His6-DivL(523–769) (domain or fragment, Caulobacter crescentus, UniProt Q9RQQ9 523-769, looked up)
chain: T1 sequence (Q9RQQ9 523-769)
notes: DivL pseudo-histidine kinase, Caulobacter crescentus, residues 523-769 (DHp and CA domains with part of the N-terminal input helix); also called DivL DHp-CA construct; crystallization construct; source: E. coli Rosetta (DE3) pLysS (plasmid pWSC8), purified (Ni-NTA, gel filtration); not shown: His6, N-terminal, kept

Key:
DivL(523–769) = target: T1, DivL(523–769); assay: fluorescence titration of TNP-ATP with DivL; conditions: read-out: apparent binding constant
DivJ = target: T2, DivJ (Caulobacter vibrioides, UniProt Q03228); assay: coupled-enzyme (PK/LDH, NADH) ATPase assay; type: biochemical; conditions: 1 mM ATP, 10 mM MgCl2, kinase buffer pH 8.0; with and without DivK activator
T2 construct: His-tagged, recombinant from E. coli
T2 sequence (Q03228 189-597): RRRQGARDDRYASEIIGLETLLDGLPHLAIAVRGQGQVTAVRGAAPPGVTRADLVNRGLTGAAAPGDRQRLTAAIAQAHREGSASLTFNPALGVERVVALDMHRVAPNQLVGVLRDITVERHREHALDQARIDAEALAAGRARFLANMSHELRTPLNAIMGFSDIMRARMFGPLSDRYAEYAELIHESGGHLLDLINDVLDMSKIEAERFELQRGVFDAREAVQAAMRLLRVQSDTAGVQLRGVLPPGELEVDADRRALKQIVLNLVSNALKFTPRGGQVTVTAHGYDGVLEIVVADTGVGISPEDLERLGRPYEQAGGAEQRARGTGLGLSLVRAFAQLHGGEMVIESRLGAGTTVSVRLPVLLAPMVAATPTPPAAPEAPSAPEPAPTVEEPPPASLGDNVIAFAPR

[1] = target: BODIPY-DivK∼P (phosphorylated DivK response regulator); assay: fluorescence polarization binding assay; conditions: parent: est. 36; read off a plot
[2] = target: BODIPY-DivK (unphosphorylated DivK response regulator); assay: fluorescence polarization binding assay; conditions: parent: est. 2.0; read off a plot
[3] = target: the molecule itself; assay: SEC; gel filtration of the purified DivL point mutants; conditions not given
[4] = target: BODIPY-DivK (unphosphorylated DivK response regulator) (Caulobacter crescentus); assay: fluorescence polarisation; 250 nM BODIPY-DivK or BODIPY-DivK∼P with varying kinase concentrations (DivL 0–120 µM), 45 min to equilibrium; DivK∼P made with 250 nM DivJ, 1 mM ATP, 5 mM MgCl2; unphosphorylated DivK with 1 mM AMP-PNP, 5 mM MgCl2; apparent Kd
[5] = target: BODIPY-DivK∼P (phosphorylated DivK response regulator) (Caulobacter crescentus); assay: as above
[6] = target: BODIPY-DivK∼P (phosphorylated DivK response regulator) (Caulobacter crescentus); assay: as above; remark: listed apart in the source
[7] = target: BODIPY-DivK (unphosphorylated DivK response regulator) (Caulobacter crescentus); assay: as above; remark: listed apart in the source
[8] = target: the molecule itself; assay: SEC; 2 mg/ml His6-DivL(523–769) on Superdex 200 10/300 GL against Bio-rad standards

| Molecule | response [1] | response [2] | stoichiometry N [3] | further results |
| --- | --- | --- | --- | --- |
| Nc1ncnc2c1ncn2[C@@H]1O[C@H](COP(=O)(O)OP(=O)(O)OP(=O)(O)O)[C@H]2OC3(O[C@H]21)C([N+](=O)[O-])=CC(=[N+]([O-])O)C=C3[N+](=O)[O-] (stereo partly shown) [TNP-ATP] | – | – | – | Kd (DivL(523–769)): 57 ± 8 µM |
| Nc1ncnc2c1ncn2[C@@H]1O[C@H](COP(=O)(O)OP(=O)(O)OP(=O)(O)O)[C@@H](O)[C@H]1O [ATP] | – | – | – | ATP consumption rate (DivJ): we observed stimulation of DivJ autokinase activity in the presence of DivK |
| B1 | 3.2 AU | 2.9 AU | 2 | – |
| B2 | 2.6 AU | – | 2 | – |
| B3 | 35 AU | 4 AU | 2 | – |
| B4 | 5.1 AU | 4.2 AU | 2 | – |
| B5 | 3.2 AU | 2.3 AU | 2 | – |
| B6 | – | – | – | Kd [4]: > 150 µM; Kd [5]: 11 µM |
| B7 | – | – | – | Kd [6]: 2.4 µM; Kd [7]: 26 µM |
| B8 | – | – | – | Kd [6]: 16 µM; Kd [7]: 8 µM |
| B9 | – | – | – | Kd [4]: 15 µM; Kd [5]: 7 µM; stoichiometry N [8]: 2 |
